Residue numbers refer to the chain shown, from its start. In names and notes the source's numbering stands.
B1: PC: P. alba MEA L494P T536C (+) TEV; pDW113, SEQ ID NO: 93 (protein)
chain: MEARRSANYEPNSWDYDYLLSSDTDESIEVYKDKAKKLEAEVRREINNEKAEFLTLLELIDNVQRLGLGYRFESDIRGALDRFVSSGGFDAVTKTSLHGTALSFRLLRQHGFEVSQEAFSGFKDQNGNFLENLKEDIKAILSLYEASFLALEGENILDEAKVFAISHLKELSEEKIGKELAEQVNHALELPLHRRTQRLEAVWSIEAYRKKEDANQVLLELAILDYNMIQSVYQRDLRETSRWWRRVGLATKLHFARDRLIESFYWAVGVAFEPQYSDCRNSVAKMFSFVTIIDDIYDVYGTLDELELFTDAVERWDVNAINDLPDYMKLCFLALYNTINEIAYDNLKDKGENILPYLTKAWADLCNAFLQEAKWLYNKSTPTFDDYFGNAWKSSSGPLQLVFAYFAVVQNIKKEEIENLQKYHDTISRPSHIFRLCNDLASASAEIARGETANSVSCYMRTKGISEELATESVMNLIDETWKKMNKEKLGGSPFAKPFVETAINLARQSHCTYHNGDAHTSPDELTRKRVLSVICEPILPFERENLYFQGLEHHHHHH
modifications: TEV site
B2: NPC: P. alba MEA A453N L494P T536C (+) TEV; pDW108, SEQ ID NO: 83 (protein)
chain: B1 chain with A453N
modifications: TEV site
B3: G491S: P. alba IspS variant G491S; pDW100, strain DW398, SEQ ID NO: 67 (protein)
chain: B1 chain with G491S, P494L, C536T
B4: SC: P. alba MEA G491S T536C (+) TEV; pDW111, SEQ ID NO: 89 (protein)
chain: B1 chain with G491S, P494L
modifications: TEV site
B5: NSPC: P. alba MEA A453N G491S L494P T536C (+) TEV; pDW109, SEQ ID NO: 85 (protein)
chain: B1 chain with A453N, G491S
modifications: TEV site
B6: NC: P. alba MEA A453N T536C (+) TEV; pDW105, SEQ ID NO: 77 (protein)
chain: B1 chain with A453N, P494L
modifications: TEV site
B7: NSP: P. alba MEA A453N G491S L494P (+) TEV; pDW106, SEQ ID NO: 79 (protein)
chain: B1 chain with A453N, G491S, C536T
modifications: TEV site
B8: NS: P. alba MEA A453N G491S (+) TEV; pDW103, SEQ ID NO: 73 (protein)
chain: B1 chain with A453N, G491S, P494L, C536T
modifications: TEV site
B9: NP: P. alba MEA A453N L494P (+) TEV; pDW104, SEQ ID NO: 75 (protein)
chain: B1 chain with A453N, C536T
modifications: TEV site
B10: NSC: P. alba MEA A453N G491S T536C (+) TEV; pDW107, SEQ ID NO: 81 (protein)
chain: B1 chain with A453N, G491S, P494L
modifications: TEV site

assay: Specific activity measurement of purified isoprene synthase variants (4 mM DMAPP, 30 C, GC-MS headspace); assay type: biochemical; conditions: 50 mM NaCl, 50 mM Tris pH = 8, 30° C.
Protocol: 1. Initial Purification—Resuspend the pellet in 3 ml of fresh lysis buffer. Break cells by passing them through the French Press using the small cylinder. Centrifuge samples for 1 hour at 30,000×G and collect the supernatant. Retain pellet in order to test for presence of insoluble protein. Pre equilibrate 0.5 mL Ni Sepharose 6 Fast Flow resin (Amersham) in a 20 ml disposable column with 10 mL of Ni wash buffer. Add protein to column and shake for 60 min at 4 C to bind protein. Elute protein with 2.5 mL Ni elution buffer.
2. Buffer Exchange—Equilibrate a PD-10 column (GE Healthcare) with 25 mL of PD-10 buffer. Load protein on to column and elute with 3.5 mL of PD-10 buffer.
10 uL of purified enzyme was incubated with 4 mM DMAPP, 50 mM MgCl2 in a buffer containing 50 mM Tris and 50 mM NaCl (pH=8) to a final volume of 100 uL for 15 min. at 30 C in gas tight 2 mL vials. Reactions were terminated with the addition of 100 uL of […] EDTA, pH=8. Samples were analyzed by GC-MS to determine the concentration of isoprene in the headspace of the vials. All specific activity measurements were performed in triplicate.
Protein concentration was determined by measuring the absorbance of each protein solution at 280 nm on a Helwlett Pachard 8453 UV-Vis spectrophotometer and converting the absorbance to protein concentration using the extinction coefficient as determined on the Expasy website (Gasteiger E., Hoogland C., Gattiker A., Duvaud S., Wilkins M. R., Appel R. D., Bairoch A.; Protein Identification and Analysis Tools on the ExPASy Server; (In) John M. Walker (ed): The Proteomics Protocols Handbook, Humana Press (2005). pp. 571-607). The protein concentrations of isoprene synthase variants assayed for KM and kcat determination were verified by comparative gel electrophoresis of a dilution series of each protein (FIG. 61).

| Molecule | S.A. [nmol/mg/min] |
| --- | --- |
| B1 | 490 ± 20 |
| B2 | 440 ± 20 |
| B3 | 480 ± 20 |
| B4 | 440 ± 20 |
| B5 | 502 ± 6 |
| B6 | 420 ± 30 |
| B7 | 465 ± 2 |
| B8 | 480 ± 40 |
| B9 | 490 ± 20 |
| B10 | 390 ± 20 |

same assay, conditions: 50 mM NaCl, 50 mM Tris pH = 8, 30° C., ratio to WT

| Molecule | Variant S.A./WT S.A. |
| --- | --- |
| B1 | 1.0 |
| B2 | 0.9 |
| B3 | 1.0 |
| B4 | 0.9 |
| B5 | 1.1 |
| B6 | 0.9 |
| B7 | 1.0 |
| B8 | 1.0 |
| B9 | 1.0 |
| B10 | 0.8 |

Source: US9175313B2, “Three-dimensional structure of isoprene synthase and its use thereof for generating variants” (Danisco US Inc., priority 2009, dated 2015)
